Holding throughout (test): FP
What all share (conditions): tags: His6 (pET15b, E. coli BL21(DE3)); label: FAM

The target of one data set is eIF4A2 (UniProt P10630 P10630:1-407). The protocol:
(§1) FIGS. 17A-17F. Assessment of eIF4A1 and eIF4A2 RNA binding specificity. 17A. Chemical structure of the most commonly used rocaglates in biological studies 17B. Coomassie blue staining of SDS-PAGE showing eIF4A1 and eIF4A2 preparations used herein. 17C. eIF4A1 and eIF4A2 have similar RNA binding specificities. eIF4A1 or eIF4A2 (500 nM) were incubated in the presence of FAM-labelled RNA (10 nM) having the indicated sequence composition for 30 mins, after which FP measurements were taken. The change in FP obtained relative to vehicle controls is presented. n=3 SD. 17D. Binding of eIF4A1 and eIF4A2 to RNA is equally responsive to CR-1-31-B (23). FAM labeled poly r(AG)₈ (SEQ ID NO: 2) (10 nM) was mixed with the indicated concentrations of eIF4A1 or eIF4A2 either in the presence of vehicle (DMSO) or […] CR-1-31-B(23). Reactions were equilibrated at RT for 30 minutes prior to measuring light polarization. n=3 SD. 17E. […] FAM-labelled RNA was incubated in the presence of 500 nM eIF4A1 and the indicated concentration of CR-1-31-B (23) for 30 min, after which time FP measurements were obtained. The change in FP relative to vehicle controls is presented. n=3±SD. 17F. The extent of eIF4A-RNA binding stimulated by CR-1-31-B 23 scales with polypurine content. FAM-labelled RNA was incubated with 500 nM eIF4A1 and the indicated concentration of CR-1-31-B (23) for 30 min, after which time FP measurements were obtained. The change in FP obtained relative to vehicle controls is presented. n=3 SD.

Data set [1] addresses T1, eIF4A1 (UniProt P60843 P60843:1-406). How it is done:
as §1

Data set [2] has as its target T1, eIF4A1. The protocol:
FAM-labelled RNA was incubated in the presence of 500 nM eIF4A1 and the indicated concentration of CR-1-31-B for 30 min, after which time FP measurements were obtained. The change in FP relative to vehicle controls is presented. n=3 SD.
as §1, with “The extent of eIF4A-RNA binding stimulated by CR-1-31-B 23 scales with polypurine content. FAM-labelled RNA was incubated with 500 nM eIF4A1 and the indicated concentration of CR-1-31-B (23) for 30 min, after which time FP measurements were obtained. The change in FP obtained relative to vehicle controls is presented. n=3 SD.” left out
The source holds these as a separate data set.

Consider 2 molecules from US20200392147, “AMIDINO- AND AMINO-ROCAGLATES AS NOVEL TRANSLATION INHIBITORS AND ANTICANCER AGENTS” (TRUSTEES OF BOSTON UNIVERSITY, published 2020).

Sequence of eIF4A2 (P10630 whole entry, one chain of several): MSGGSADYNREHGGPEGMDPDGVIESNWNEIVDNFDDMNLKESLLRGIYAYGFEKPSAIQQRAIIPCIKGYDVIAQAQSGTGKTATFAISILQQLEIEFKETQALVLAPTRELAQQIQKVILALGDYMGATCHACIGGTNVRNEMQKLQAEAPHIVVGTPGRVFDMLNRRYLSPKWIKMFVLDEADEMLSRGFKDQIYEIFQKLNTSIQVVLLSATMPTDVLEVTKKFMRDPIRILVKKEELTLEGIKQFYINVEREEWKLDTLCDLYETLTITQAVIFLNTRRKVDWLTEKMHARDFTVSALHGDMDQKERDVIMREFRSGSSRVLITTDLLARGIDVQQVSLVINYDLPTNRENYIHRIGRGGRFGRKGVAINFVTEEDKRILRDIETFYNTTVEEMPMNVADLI
T1 sequence (P60843 whole entry, one chain of several): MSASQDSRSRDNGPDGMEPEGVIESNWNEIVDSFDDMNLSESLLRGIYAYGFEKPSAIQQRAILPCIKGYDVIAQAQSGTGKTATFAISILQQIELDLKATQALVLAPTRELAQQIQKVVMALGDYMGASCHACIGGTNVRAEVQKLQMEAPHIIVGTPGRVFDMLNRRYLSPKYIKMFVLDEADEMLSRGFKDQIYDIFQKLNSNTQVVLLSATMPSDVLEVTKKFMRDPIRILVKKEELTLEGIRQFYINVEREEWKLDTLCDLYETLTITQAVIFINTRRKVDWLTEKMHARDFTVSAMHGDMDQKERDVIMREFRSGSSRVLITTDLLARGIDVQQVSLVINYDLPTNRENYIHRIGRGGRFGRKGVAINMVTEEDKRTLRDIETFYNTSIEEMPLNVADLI

For AGAAGAAGAAGAAGAA (ssRNA) [r(A(GAA)5)], the binding result with eIF4A2 and in the data set with eIF4A1 [1] was “binds” in each case.

Consider AGAGAGAGAGAGAGAG (ssRNA) [poly r(AG)8], for which the binding result with eIF4A1 [2] and in the data set with eIF4A2 was “binds” throughout.
